# Target: SARS-CoV-2 (2019-nCoV) Spike S1-His Recombinant Protein (HPLC-verified), Sino Biological Catalog Number 40591-V08H (SARS-CoV-2) (UniProt P0DTC2)
substance,measurement,value
Galanthus nivalis agglutinin (GNA) (from UniProt P30617 24-128),percent of S1 depleted at 15 minutes,> 90%

# Reference: patent US20240399042A1
